Measured values as given in PMC3149064, “Differential Calcium Signaling by Cone Specific Guanylate Cyclase-Activating Proteins from the Zebrafish Retina” (PLoS ONE, 2011).

B1: zebrafish guanylate cyclase-activating protein 7 (natural protein, zebrafish (Danio rerio), UniProt Q5MAC7 1-187, looked up)
chain: MGQNQSDEEEEEVELTEIQPLYTRFMKVCPSGALHLHEFRRIFGVQSSSEEEALYMETIFKSFDTNRDNVIDFMEFVAAVHLVLRGNLEDRLKWSFKVYDRDENGKLDRQEVIHVIRILCKLKKNRINMTPVEICDRIFELLDENNDGQISLSEFLEGAEKDAWIMDLLKLDTNARVWFRDNLGKKT
notes: Non-myristoylated; also called zGCAP7; source: anion exchange, ammonium sulfate precipitation, SEC

Columns and labels:
[1] = biological target: zebrafish guanylate cyclase-activating protein 1 (zebrafish (Danio rerio)); assay: SEC; analytical size exclusion chromatography (HPLC) on a BioSep-SEC S2000 column with molecular mass standards, 20 µg purified protein, run in the presence of 0.5 mM EGTA (Ca2+-free); dimer to monomers
[2] = biological target: the molecule itself; assay: as above

| Molecule | percent dimers [1] | stoichiometry N [1] | stoichiometry N [2] |
| --- | --- | --- | --- |
| zebrafish guanylate cyclase-activating protein 1 (natural protein) | 18% | 2 | – |
| B1 | – | – | 2 |
